We go through nine molecules from patent US20120164688A1 (Regeneron, published 2012).

First the molecules themselves.
B6: REGN475 (antibody, human IgG4 S228P)
heavy: not shown
VL: DIQMTQSPSSLSASAGDRVTITCRASQAIRNDLGWYQQKPGKAPKRLIYAAFNLQSGVPSRFSGSGSGTEFTLTISSLQPEDLASYYCQQYNRYPWTFGQGTKVEIKR
B7: human neurotrophin-3 (NT-3) (ligand, UniProt P20783 139-257, looked up)
chain: YAEHKSHRGEYSVCDSESLWVTDKSSAIDIRGHQVTVLGEIKTGNSPVKQYFYETRCKEARPVKNGCRGIDDKHWNSQCKTSQTYVRALTSENNKLVGWRWIRIDTSCVCALSRKIGRT
notes: also called human NT-3

In experiment [1] the target is B7. The experiment can be described thus: BIACORE; 20 nM NT-3 + 500 nM agent, % NT-3 bound to p75-hFc chip. On the procedure: (§1) Human TrkA-hFc (9300 RU), human TrkB-hFc (6000 RU), human TrkC-hFc (9100 RU) and human p75-hFc (7500 RU) were covalently coupled to BIACORE® CM5 chip surfaces by amine-coupling procedure. […] The binding mixture was first incubated at room temperature to reach equilibrium (about 1 hr) and then was injected over the above TrkA-hFc, TrkB-hFc, TrkC-hFc and p75-hFc surfaces.
(Surface plasmon resonance follows binding to a sensor surface in real time, without labels.)

The target in experiment [2] is B7. The experiment can be described thus: BIACORE; 20 nM NT-3 + 500 nM agent, % NT-3 bound to TrkA-hFc chip. The protocol: as §1
Experiment [3] concerns the target B7. The experiment can be described thus: BIACORE; 20 nM NT-3 + 500 nM agent, % NT-3 bound to TrkC-hFc chip. The protocol: as §1
In experiment [4] the target is B7. Briefly: BIACORE; 20 nM NT-3 + 500 nM agent, % NT-3 bound to TrkB-hFc chip. On the procedure: as §1
The target of the next experiment is rat NGF (rNGF) (rat, UniProt P25427 122-241, limits assumed). The experiment can be described thus: BIACORE SPR; purified mAb.
In the next experiment the target is mouse NGF (mNGF) (mouse, UniProt P01139 122-241, limits assumed). Briefly: BIACORE SPR; purified mAb.
In experiment [5] the target is T1, human nerve growth factor (NGF) (human, UniProt P01138 122-241).
T1 construct: range 122-241; biotin-labeled in OCTET and ELISA assays; also called human NGF; biotin-NGF
The experiment can be described thus: BIACORE SPR; purified mAb.

The target of experiment [6] is T1, human nerve growth factor (NGF). The experiment can be described thus: BIACORE blocking; % free NGF bound to p75-hFc chip. An excerpt:
(§2) To identify blocking antibodies, a receptor blocking assay was designed using a BIACORE™ 3000 instrument. Recombinant human TrkA-hFc and human p75-hFc proteins were amine-coupled to a CM5 chip to a density of about 5000-6000 RU.

Experiment [7] shares this target. The experiment can be described thus: competition ELISA; 50 pM biotin-NGF, hTrkA-hFc plate. The protocol: (§3) Specifically, the microtiter plates were prepared by coating the plates with 0.5 μg/ml hTrkA-hFc or 1 μg/ml hp75-hFc solution in PBS buffer overnight at 4° C., followed by blocking the plates with 0.5% BSA prior to use.
(In an ELISA, binding on a coated surface is turned into a signal by an enzyme label.)

Experiment [8] addresses B7. The experiment can be described thus: BIACORE SPR.
For experiment [9], the target named is T1, human nerve growth factor (NGF). Briefly: competition ELISA; 50 pM biotin-NGF, hp75-hFc plate. On the procedure: as §3
For experiment [10] the target is unchanged. Briefly: BIACORE SPR; purified mAb. The protocol:
Antibodies were captured on either a goat, anti-human or anti-mouse IgG polyclonal antibody surface created by direct amine coupling of the capture antibody to a BIACORE™ chip. […] Kinetic analysis was performed to obtain the equilibrium dissociation constant (KD) and dissociation rate constant, and the latter was used to calculate the antigen/antibody complex dissociation t_{1/2} (Table 1).
This is another data set of the same source.

Experiment [11] has the same target. Briefly: BIACORE blocking; % free NGF bound to TrkA-hFc chip.
From the text: as §2

For experiment [12] the target is unchanged. The experiment can be described thus: cell-based or functional assay.
Experiment [13] has as its target B7. Briefly: OCTET solution competition against biotin-NGF sensor. On the procedure: (§4) Changes in the thickness of the biological layer were measured after incubation. The binding was normalized as a percentage of binding relative to the binding of antibody in absence of competitor.
Experiment [14] has as its target T2, humanized anti-human NGF monoclonal antibody E3 ("RN624") (tanezumab; CAS Registry No. 880266-57-9).
T2 construct: control antibody; also called Control (RN624); Control mAb (RN624)
The experiment can be described thus: OCTET; % RN624 binding to biotin-NGF sensor, no competitor (reference). The protocol: as §4

The experiment “REGN475” has as its target B6. The experiment can be described thus: OCTET; % REGN475 binding to biotin-NGF sensor, no competitor (reference). The protocol:
as §4

Read-outs that look alike come from different tables or passages of the source.

mouse NGF (mNGF), sequence (P01139 122-241 limits assumed): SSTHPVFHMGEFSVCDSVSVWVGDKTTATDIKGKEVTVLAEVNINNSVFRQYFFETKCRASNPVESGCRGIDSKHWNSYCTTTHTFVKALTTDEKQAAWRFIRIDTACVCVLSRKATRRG
T1 sequence (P01138 122-241 limits assumed): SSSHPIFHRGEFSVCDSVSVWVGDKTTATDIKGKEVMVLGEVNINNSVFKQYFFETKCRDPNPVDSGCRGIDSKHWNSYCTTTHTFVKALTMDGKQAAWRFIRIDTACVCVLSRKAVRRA
T1 sequence (P01138 122-241 limits assumed): as above
rat NGF (rNGF), sequence (P25427 122-241 limits assumed): as the sequence (P01139 122-241 limits assumed) above, with A40G, R50K, S61P, E94D, T117A counted along it

B1: recombinant human TrkA-hFc (Fc fusion, UniProt P04629 33-423, looked up)
chain: AAPCPDACCPHGSSGLRCTRDGALDSLHHLPGAENLTELYIENQQHLQHLELRDLRGLGELRNLTIVKSGLRFVAPDAFHFTPRLSRLNLSFNALESLSWKTVQGLSLQELVLSGNPLHCSCALRWLQRWEEEGLGGVPEQKLQCHGQGPLAHMPNASCGVPTLKVQVPNASVDVGDDVLLRCQVEGRGLEQAGWILTELEQSATVMKSGGLPSLGLTLANVTSDLNRKNVTCWAENDVGRAEVSVQVNVSFPASVQLHTAVEMHHWCIPFSVDGQPAPSLRWLFNGSVLNETSFIFTEFLEPAANETVRHGCLRLNQPTHVNNGNYTLLAANPFGQASASIMAAFMDNPFEFNPEDPIPVSFSPVDTNSTSGDPVEKKDETPFGVSVAVG
notes: extracellular domain; dimeric fusion protein; also called hTrkA-hFc; not shown: Fc portion of human IgG1
For B1, the “% binding” value was determined as 7% in experiment [1], 21% in experiment [2], 3% in experiment [3] and 5% in experiment [4].

B2: REGN476 (antibody, human IgG4 S228P, V domains shown)
VH: EVQLVESGGGLVQPGRSLRLSCAAPGFNFDDYAMHWVRQAPGKGLEWVSGISWNSGTIGYADSVKGRFTISRDNAKNSLYLQMNSLRAEDTALYYCAKEGVWFGKLFSSYGMDVWGQGTTVTVSS
VL: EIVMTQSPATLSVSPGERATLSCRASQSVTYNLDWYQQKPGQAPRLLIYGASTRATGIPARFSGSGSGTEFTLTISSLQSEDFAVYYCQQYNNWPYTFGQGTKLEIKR
For B2, the dissociation constant (Kd) was 155 pM in the experiment with rat NGF (rNGF), 115 pM with mouse NGF (mNGF), 8.91 pM in experiment [5] and 8.91 pM in [10]. In addition, in experiment [6], the “% Binding p75-hFc” value is 13%. The figures for the IC50 in [7] and in experiment [9] were 0.065 nM and 0.061 nM, respectively. For the same molecule, in experiment [8], the binding result is listed as “no binding (tested: 1.25 nM to 40 nM)”. The molecule also gave a t1/2 in [10] of 4 h. The “% Binding TrkA-hFc” value in experiment [11] turned out to be 6%.

B3: REGN477 (antibody, human IgG4 S228P)
heavy: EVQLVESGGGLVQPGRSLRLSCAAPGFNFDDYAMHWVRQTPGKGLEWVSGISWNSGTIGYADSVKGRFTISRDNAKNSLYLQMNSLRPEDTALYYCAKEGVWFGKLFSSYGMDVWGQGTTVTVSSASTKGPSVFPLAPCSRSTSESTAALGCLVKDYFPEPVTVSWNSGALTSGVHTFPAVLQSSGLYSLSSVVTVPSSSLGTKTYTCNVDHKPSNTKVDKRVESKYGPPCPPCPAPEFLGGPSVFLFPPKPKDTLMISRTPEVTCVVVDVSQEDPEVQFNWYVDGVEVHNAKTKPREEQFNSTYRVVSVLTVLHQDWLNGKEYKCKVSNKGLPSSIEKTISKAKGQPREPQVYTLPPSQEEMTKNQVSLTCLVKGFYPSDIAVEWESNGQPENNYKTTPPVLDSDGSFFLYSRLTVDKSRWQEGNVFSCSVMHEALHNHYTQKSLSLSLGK
VL: EIVMTQSPATLSVSPGERATLSCRASQSVTYNLDWYQQKPGQAPRLLIFGASTRATGIPARFSGSGSGTEFTLTITSLQSEDFAVYYCQQYNNWPYTFGQGTKLEIKR
For B3, the Kd in the experiment with rat NGF (rNGF) turned out to be 164 pM; with mouse NGF (mNGF), 133 pM; in experiment [5] it was 7.98 pM; in experiment [10], 7.98 pM. In addition, the “% Binding p75-hFc” value in experiment [6] stood at 13%. Moreover, the IC50 in experiment [7] amounted to 0.065 nM; in experiment [9] it was 0.062 nM. Moreover, the binding result in [8] is reported as “no binding (tested: 1.25 nM to 40 nM)”. In experiment [10], this molecule registered a t1/2 of 4 h. The “% Binding TrkA-hFc” value in [11] is 9%.

B4: REGN472 (antibody, human IgG1)
heavy: not shown
VL: DIQMTQSPSSLSASVGDRVTITCRASQAIRNDLGWYQQKPGKAPKRLIYAAFNLQSGVPSRFSGSGSGTEFTLTISSLQPEDFATYYCQQYNRYPWTFGQGTKVEIKR
For B4, the Kd with rat NGF (rNGF) worked out at 3.96 pM; with mouse NGF (mNGF), 0.61 pM; in [5], 0.41 pM; in [10] it was 0.41 pM. Also, the “% Binding p75-hFc” value in [6] amounted to 7%. In addition, in experiment [12], the “IC50 (pM), PC12 SRE-luciferase” value is 4.5 pM. Besides, the IC50 in experiment [7] and in [9] was 0.012 nM in each case. In addition, the binding result in experiment [8] is on record as “no binding (tested: 1.25 nM to 40 nM)”. Moreover, in experiment [10], the t1/2 is 30 h. For the same molecule, the “% Binding TrkA-hFc” value in [11] is 4%.

B5: REGN474 (antibody, human IgG4 S228P)
heavy: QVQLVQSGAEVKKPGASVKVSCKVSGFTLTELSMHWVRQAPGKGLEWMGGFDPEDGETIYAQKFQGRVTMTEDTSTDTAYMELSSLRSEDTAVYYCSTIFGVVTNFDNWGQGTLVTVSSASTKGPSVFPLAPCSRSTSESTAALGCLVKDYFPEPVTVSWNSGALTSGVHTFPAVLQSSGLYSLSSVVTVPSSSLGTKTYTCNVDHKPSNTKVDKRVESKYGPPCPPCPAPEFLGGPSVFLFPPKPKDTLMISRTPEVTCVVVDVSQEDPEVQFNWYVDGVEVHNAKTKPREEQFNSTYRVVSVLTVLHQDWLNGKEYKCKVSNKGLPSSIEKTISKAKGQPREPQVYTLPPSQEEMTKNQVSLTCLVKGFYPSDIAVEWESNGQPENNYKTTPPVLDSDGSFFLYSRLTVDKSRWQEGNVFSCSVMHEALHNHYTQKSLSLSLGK
VL: DIQMTQSPSSLSASVGDRVTITCRASQAIRNDLGWYQQKPGKAPKRLIYAAFNLQSGVPSRFSGSGSGTEFTLTISSLQPEDFATYYCQQYNRYPWTFGQGTKVEIKR
In the case of B5, the equilibrium dissociation constant (Kd) in the experiment with rat NGF (rNGF) worked out at 3.42 pM; in the experiment with mouse NGF (mNGF), 0.43 pM; in experiment [5] it was 0.41 pM; in [10] it was 0.41 pM. In [6], the “% Binding p75-hFc” value turned out to be 9%. In addition, in [12], the “IC50 (pM), PC12 SRE-luciferase” value came to 6.6 pM. Moreover, the results for the IC50 in experiment [7] and in [9] were 0.0081 nM and 0.0063 nM, respectively. Also, the binding result in experiment [8] is listed as “no binding (tested: 1.25 nM to 40 nM)”. In [10], this molecule yielded a t1/2 of 31 h. In experiment [11], the “% Binding TrkA-hFc” value was 6%.
As to B6, the dissociation constant Kd worked out at 0.93 pM with rat NGF (rNGF), 0.36 pM with mouse NGF (mNGF), 0.18 pM in [5] and 0.18 pM in experiment [10]. Moreover, the binding result in experiment [13] is “no binding (tested: 0 to 4 µM)”. Besides, in experiment [6], the “% Binding p75-hFc” value amounted to 10%. The figures for the “% binding” value in [2], in [3] and in experiment [4] were 90%, 101% and 99%, respectively. The “IC50 (pM), PC12 SRE-luciferase” value in experiment [12] was 9.6 pM. For the same molecule, the figures for the concentration for half-maximal inhibition (IC50) in experiment [7] and in [9] were 0.02 nM and 0.022 nM, respectively. This molecule yielded a t1/2 in experiment [10] of 57 h. In experiment [11], the “% Binding TrkA-hFc” value worked out at 6%.
In the case of B7, the “RN624 % Binding” value in [14] amounted to 100%. Also, the “REGN475 % Binding” value in the experiment with REGN475 was 100%.

B8: recombinant human p75-hFc (Fc fusion, UniProt P08138 29-250, looked up)
chain: KEACPTGLYTHSGECCKACNLGEGVAQPCGANQTVCEPCLDSVTFSDVVSATEPCKPCTECVGLQSMSAPCVEADDAVCRCAYGYYQDETTGRCEACRVCEAGSGLVFSCQDKQNTVCEECPDGTYSDEANHVDPCLPCTVCEDTERQLRECTRWADAECEEIPGRWITRSTPPEGSDSTAPSTQEPEAPPEQDLIASTVAGVVTTVMGSSQPVVTRGTTDN
notes: extracellular domain; dimeric fusion protein; also called hp75-hFc; not shown: Fc portion of human IgG1
For B8, the “% binding” value in [1] is 4%; in experiment [2], 14%; in [3], 2%; in [4] it was 2%.

B9: human brain derived neurotrophic factor (hBDNF) (ligand, UniProt P23560 129-247, looked up)
chain: HSDPARRGELSVCDSISEWVTAADKKTAVDMSGGTVTVLEKVPVSKGQLKQYFYETKCNPMGYTKEGCRGIDKRHWNSQCRTTQSYVRALTMDSKKRIGWRFIRIDTSCVCTLTIKRGR
Consider B9, for which the “RN624 % Binding” value in experiment [14] was 100%. The “REGN475 % Binding” value with REGN475 was 100%.

As a reminder, the Kd is the constant that tells how readily two partners part at equilibrium. A high value points to a looser complex. Usually IC50 stands for the concentration that inhibits the measured activity by half. Read a high IC50 as a need for much substance.
